We go through 4 substances from PMC11094772.

Assay in all cases: BLI
A general note: Biolayer interferometry detects binding as a change in optical thickness at a sensor tip.

For test [1], the target named is KRAS4B (residues 1-185, C118S) tethered to nanodiscs (UniProt P01116).
The target is the same in test [2]. The source holds these as a separate data set.
For test [3] the target is unchanged. The source holds these as a separate data set.
The target is the same in test [4]. The source holds these as a separate data set.

Where two headings read alike, the source gives them in different places.

One may read the Kd as the free concentration of one partner at which half of the binding sites on the other are occupied at equilibrium, for simple one-to-one binding. A low value points to a tighter complex. By koff is commonly meant the rate constant with which the complex falls apart. The term kon denotes a measure of how fast the partners come together. A lower kon goes with slow association.

Consider “D-BRAF: dimeric MBP-BRAF(S365A):14-3-3 complex (2 MBP-BRAF: 2 14-3-3) (from UniProt P15056 1-766)”, for which the Kd in test [1] came out at 28.6 nM; in test [2] it was 18.5 nM; in test [3] it was 29.1 nM; in test [4], 57.4 nM. The dissociation rate constant (koff) is 0.00269 s⁻¹ in test [1], 0.00185 s⁻¹ in test [2], 0.0034 s⁻¹ in test [3] and 0.00395 s⁻¹ in test [4]. For the same substance, the kon is 94100 M⁻¹ s⁻¹ in test [1], 105000 M⁻¹ s⁻¹ in test [2], 106000 M⁻¹ s⁻¹ in test [3] and 69000 M⁻¹ s⁻¹ in test [4].

Take “tagless dimeric BRAF(S365A):14-3-3 complex (MBP removed by TEV protease) (from UniProt P15056 1-766)”: in test [4], the Kd turned out to be 25.5 nM.

In the case of “M-BRAF: monomeric MBP-BRAF(WT):14-3-3 complex (1 MBP-BRAF: 2 14-3-3) (from UniProt P15056 1-766)”, the Kd in test [1] amounted to 93.3 nM; in test [2], 68.2 nM; in test [3] it was 65.5 nM; in test [4], 177 nM. The koff was 0.00235 s⁻¹ in test [1], 0.0016 s⁻¹ in test [2], 0.00266 s⁻¹ in test [3] and 0.00372 s⁻¹ in test [4]. Further, the kon in test [1] is 25400 M⁻¹ s⁻¹; in test [2] it was 24000 M⁻¹ s⁻¹; in test [3] it was 44200 M⁻¹ s⁻¹; in test [4], 21100 M⁻¹ s⁻¹.

In test [4], “tagless monomeric BRAF(WT):14-3-3 complex (MBP removed by TEV protease) (from UniProt P15056 1-766)” registered a Kd of 35.5 nM.
